From PMC11621127
Read-outs that look alike come from different tables or passages of the source.

Tests used:
[1] = target: JRCSF SOSIP (chimeric SOSIP Env trimer: gp120 from JRCSF.JB, gp41 from BG505 with MD39 substitutions) (HIV-1 strain JRCSF.JB | HIV-1 strain BG505); experiment: mass photometry; Fab-SOSIP complexes formed at room temperature in TBS overnight, 4 uM trimer, 1.05 molar excess of Fab to SOSIP protomer, not purified by SEC; diluted to 8 nM trimer and a further 10-fold (6535.3) or 4-fold (JRCSF) on the instrument; SOSIP alone as control
[2] = target: 6535.3 SOSIP (chimeric SOSIP Env trimer: gp120 from 6535.3, gp41 from BG505 with MD39 substitutions) (HIV-1 strain 6535.3 | HIV-1 strain BG505); experiment: as above
[3] = target: 6535.3 SOSIP (chimeric SOSIP Env trimer: gp120 from 6535.3, gp41 from BG505 with MD39 substitutions) (HIV-1 strain 6535.3 | HIV-1 strain BG505); experiment: cryo-EM structure; SOSIP complexed with Fab at room temperature overnight, about 1.3:1 molar excess Fab:SOSIP protomer; SEC (Superose 6 Increase) in TBS; ~1.1 mg/mL (JRCSF/Ab1456) or ~1.9 mg/mL (6535.3/Ab1271); no sCD4 or CD4 mimetic
[4] = target: JRCSF SOSIP (chimeric SOSIP Env trimer: gp120 from JRCSF.JB, gp41 from BG505 with MD39 substitutions) (HIV-1 strain JRCSF.JB | HIV-1 strain BG505); experiment: as above
[5] = target: JRCSF SOSIP (chimeric SOSIP Env trimer: gp120 from JRCSF.JB, gp41 from BG505 with MD39 substitutions) (HIV-1 strain JRCSF.JB | HIV-1 strain BG505); experiment: as above; remark: listed apart in the source
[6] = target: JRCSF SOSIP (chimeric SOSIP Env trimer: gp120 from JRCSF.JB, gp41 from BG505 with MD39 substitutions) (HIV-1 strain JRCSF.JB | HIV-1 strain BG505); experiment: as above; remark: listed apart in the source

Molecule: JRCSF SOSIP (chimeric SOSIP Env trimer: gp120 from JRCSF.JB, gp41 from BG505 with MD39 substitutions) (complex)
- stoichiometry N [1]: 3

Molecule: 6535.3 SOSIP (chimeric SOSIP Env trimer: gp120 from 6535.3, gp41 from BG505 with MD39 substitutions) (complex)
- stoichiometry N [2]: 3

B1: Ab1271 Fab (Fab, V domains shown)
VH: QVQLVESGPGLVKPSETLSLTCAVSGDSISSTWWNWIRQPPGKGLEWIGRISGDGGNTDYSPSLKSRVTISTDTSKNQLSLRLTSVAAADTAVYFCAAPDCSGPDCSPGFDYWGPGVLVTVSS
VL: QPVLTQPPSVSGAPGQRVTISCTGSSSDIGRFYVQWYQQLPGTAPKLLIYENTKRPSGISDRFSGSQSGPSASLTITGLQSEDEADYYCQSYDSSMSAHVLFGGGTRLTVL
- stoichiometry N (Fab per trimer) [3]: 1
- stoichiometry N (Fab per trimer) [2]: 1

B2: Ab1456 Fab (Fab, V domains shown)
VH: QVQLVESGAEVKRPGDSLKISCKTSGDVFTSTWITWVRQMPGKDLEWMASIYLDDSDTQYNPSFQGHVTISADKSINTIYLQLSSLKVSDTATYYCAKWGVDCSDSGCSSAFDSWGQGVLVTVSS
VL: SYELTQPPSVSGAPGQRVTISCTGGTSNIGNYYVQWYQQLPGTAPKLLIYENNKRPSGISDRFSGSQSGTSGSLTITTGLQSEDEADYFCQSYDDSLSAHVFGSGTKVTIL
- stoichiometry N (Fab per trimer) [4]: 1
- stoichiometry N (Fab per trimer) [5]: 3
- stoichiometry N (Fab per trimer) [6]: 2
